Ends that are not written are not given here.

The values below come from patent publication US11918683B2, “Treatment of immune diseases by administration of antigen-specific formulations” (Allero Therapeutics B.V., priority 2017, dated 2024).

Experiment [1] has as its system NOD AB° DQ8 transgenic mice. As to the kind of experiment: Antigen-specific DTH response (ear swelling) after SLIT. It is filed as in vivo. To be noted: 10 μg DQ8d in ear, 24 hours, compared to PBS.
Experiment [2] concerns Foxp3. As to the kind of experiment: Foxp3 expression within CD4+ T cell population by FACS. The class given is cell-based, NOD AB° DQ8 transgenic mice. As to conditions: spleen. How it is done: Flow cytometric analysis: spleens and cervical lymph node tissue of SLIT treated mice were isolated, prepared as described above and stained for CD4, CD25 and Foxp3. Intracellular staining was performed for Foxp3 according to the manufacturer's instructions (eBiosciences) and subsequently measured using flow cytometry on a Becton Dickinson FACSCaliburs. Cells were gated on CD4^+CD25^+ and CD4^+CD25^− subpopulations and within these populations Foxp3 histograms were used to determine Mean Fluorescence Intensity (MFI).
T-cell phenotyping: CD4 and CD25 antibodies were purchased from BD Biosciences, and APC anti-Foxp3 staining kits were purchased from eBiosciences. Anti-IL-10 neutralizing monoclonal antibody (1 μg/mL, clone JES052A5), TGF-β neutralizing monoclonal antibody (1 μg/mL, clone 1D11) and LAP (latency associated peptide) neutralizing antibodies (1 μg/mL, clone 27235) were obtained from R&D systems.
(In general: A flow cytometer gives signals particle by particle.)

Experiment [3] concerns OVA- or Ovm-sensitized piglets. Description: Piglet food allergy model, oromucosal PSF patch treatment. The class given is in vivo, Landrace-Yorkshire piglets. As to conditions: oromucosal once weekly for 6 weeks.
Experiment [4] relates to OVA- or HDM-sensitized mice. As to the kind of experiment: Sublingual immunotherapy (SLIT) mouse model. To be noted: sublingual 5 days a week for 8 weeks. It is filed as in vivo, BALB/cByJ mice. On the procedure: Antigen: naturally purified Der p1 and 2 in a 50:1 ratio was purchased from Citeq or intact, LPS-free OVA grade V protein (Sigma Aldrich) was used as antigen in all experiments. Animals: BALB/cByJ mice were purchased from Charles River Laboratories at an age of 6 to 8 weeks and housed in individually ventilated cages (IVC). Sensitization of mice: all mice received intraperinoneal injections on day 1 and 15 of 5 μg crude extract […]) or 25 μg OVA adsorbed to 2.25 mg Alum (Imject, Pierce) in 100 μL PBS. […] Hereafter, airway responsiveness was determined, and bronchoalveolar lavage fluid (BALF), lungs, and blood were collected and stored for analyses. Measurement of airway hyperreactivity to methacholine: airway hyperresponsiveness (AHR) was assessed by measuring airway resistance (R in cmH2O.s/mL) and lung compliance (C in mL/H2O) in response to intravenous administration of increasing doses of methacholine (Sigma-Aldrich). The AHR was expressed as the effective dose of methacholine required to induce a R of 3 cmH2O.s/mL (ED3). […] ELISA determined the concentrations of IL-5, IL-10, IL-13 and IFN-γ, according to the manufacturer's instructions (BD Pharmingen). […]

In the case of “deaminated DQ8d peptide GAPVPYPDPLEPRQYPSGEGSFQPSQENPQA (also: deaminated (sites not given here)) [deaminated gliadin peptide antigen]”, the “DTH response (ear swelling)” value in experiment [1] is “slight reduction”. Moreover, the “number of Foxp3 CD4+ T cells” value in experiment [2] was “did not show a significant increase”.

B1: Ovm: Ovm protein (ovomucoid) used as antigen (protein, UniProt P01005 25-210, looked up)
Ovomucoid: AEVDCSRFPNATDKEGKDVLVCNKDLRPICGTDGVTYTNDCLLCAYSIEFGTNISKEHDGECKETVPMNCSSYANTTSEDGKVMVLCNRAFNPVCGTDGVTYDNECLLCAHKVEQGASVDKRHDGGCRKELAAVSVDCSEYPKPDCTAEDRPLCGSDNKTYGNKCNFCNAVVESNGTLTLSHFGKC
On to B1, for which the AHR result in experiment [3] is “only a moderate effect”.

B2: OVA: intact, LPS-free OVA grade V protein (ovalbumin) used as antigen (protein, UniProt P01012 2-386, looked up)
Ovalbumin: GSIGAASMEFCFDVFKELKVHHANENIFYCPIAIMSALAMVYLGAKDSTRTQINKVVRFDKLPGFGDSIEAQCGTSVNVHSSLRDILNQITKPNDVYSFSLASRLYAEERYPILPEYLQCVKELYRGGLEPINFQTAADQARELINSWVESQTNGIIRNVLQPSSVDSQTAMVLVNAIVFKGLWEKAFKDEDTQAMPFRVTEQESKPVQMMYQIGLFRVASMASEKMKILELPFASGTMSMLVLLPDEVSGLEQLESIINFEKLTEWTSSNVMEERKIKVYLPRMKMEEKYNLTSVLMAMGITDVFSSSANLSGISSAESLKISQAVHAAHAEINEAGREVVGSAEAGVDAASVSEEFRADHPFLFCIKHIATNAVLFFGRCVSP
Regarding B2, the AHR entry in experiment [4] and in experiment [3] was “only a moderate effect” throughout.
